Laboratory results taken from patent US20230250178A1.

Columns and labels:
[1] = target: murine CCR8 (mouse) (UniProt P56484); test: FACS, BODIPY-labelled antibody, BW5147.3
[2] = target: FcRn of the FcRn column (Roche, Order No. 8128057001); test: FcRn affinity chromatography, pH gradient
[3] = target: human FcRn (human) (UniProt P55899); test: SPR pH 6.0, FcRn immobilised
[4] = target: cynomolgus FcRn (cynomolgus) (UniProt Q8SPV9); test: SPR pH 6.0, FcRn immobilised
[5] = target: mouse FcRn (mouse) (UniProt Q61559); test: SPR pH 6.0, FcRn immobilised
mouse FcRn (mouse), sequence (Q61559 22-297 limits assumed, form in doubt): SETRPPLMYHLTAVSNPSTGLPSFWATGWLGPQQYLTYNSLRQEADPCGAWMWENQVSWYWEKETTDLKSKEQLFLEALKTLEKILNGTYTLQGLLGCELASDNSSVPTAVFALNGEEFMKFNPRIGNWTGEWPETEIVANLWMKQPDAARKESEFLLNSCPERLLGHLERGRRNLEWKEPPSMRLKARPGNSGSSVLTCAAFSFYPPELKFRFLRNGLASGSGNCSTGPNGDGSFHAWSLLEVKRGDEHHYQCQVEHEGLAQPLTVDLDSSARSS

[6] = target: human CCR8 (human) (UniProt P51685); test: cell-based or functional assay
[7] = target: cynomolgus CCR8 (cynomolgus); test: FACS, CHO-cynoCCR8
cynomolgus CCR8 (cynomolgus), sequence (O97665 other isoform, or with tags, fused parts or gaps): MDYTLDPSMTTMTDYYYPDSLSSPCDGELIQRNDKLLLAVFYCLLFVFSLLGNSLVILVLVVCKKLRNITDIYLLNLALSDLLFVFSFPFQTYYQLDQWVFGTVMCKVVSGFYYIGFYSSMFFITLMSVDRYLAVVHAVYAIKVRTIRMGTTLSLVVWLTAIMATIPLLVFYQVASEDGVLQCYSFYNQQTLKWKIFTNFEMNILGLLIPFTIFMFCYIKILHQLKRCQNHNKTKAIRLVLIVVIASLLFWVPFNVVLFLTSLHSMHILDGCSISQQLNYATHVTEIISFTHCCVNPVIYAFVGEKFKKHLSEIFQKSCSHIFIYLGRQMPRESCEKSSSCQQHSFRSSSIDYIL

[8] = target: human CCR8 (human) (UniProt P51685); test: FACS, CHO-hCCR8
[9] = target: human CCR8 (human) (UniProt P51685); test: FACS, BODIPY-labelled antibody, HuT78

Ustekinumab (antibody), sequence (HC): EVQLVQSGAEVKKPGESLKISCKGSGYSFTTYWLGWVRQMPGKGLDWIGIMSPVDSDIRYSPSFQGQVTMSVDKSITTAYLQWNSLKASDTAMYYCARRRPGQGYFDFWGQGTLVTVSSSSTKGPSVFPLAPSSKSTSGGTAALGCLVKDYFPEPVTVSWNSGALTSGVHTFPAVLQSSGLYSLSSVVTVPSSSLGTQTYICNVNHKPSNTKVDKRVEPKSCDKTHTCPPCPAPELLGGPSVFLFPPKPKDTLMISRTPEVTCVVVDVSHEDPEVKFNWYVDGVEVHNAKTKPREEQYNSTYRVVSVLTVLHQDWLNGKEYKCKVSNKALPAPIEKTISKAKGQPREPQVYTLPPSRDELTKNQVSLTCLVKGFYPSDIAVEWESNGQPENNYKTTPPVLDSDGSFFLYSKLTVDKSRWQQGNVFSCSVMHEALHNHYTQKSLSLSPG
Ustekinumab (antibody), sequence (LC): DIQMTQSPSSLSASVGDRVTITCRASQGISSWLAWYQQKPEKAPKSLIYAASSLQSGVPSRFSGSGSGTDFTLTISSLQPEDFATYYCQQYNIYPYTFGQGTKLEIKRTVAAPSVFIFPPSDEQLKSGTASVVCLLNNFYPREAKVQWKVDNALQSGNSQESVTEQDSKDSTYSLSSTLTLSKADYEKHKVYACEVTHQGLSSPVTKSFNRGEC
FcRn of the FcRn column (Roche, Order No. 8128057001), sequence (P55899 24-297, chain 1 of 2): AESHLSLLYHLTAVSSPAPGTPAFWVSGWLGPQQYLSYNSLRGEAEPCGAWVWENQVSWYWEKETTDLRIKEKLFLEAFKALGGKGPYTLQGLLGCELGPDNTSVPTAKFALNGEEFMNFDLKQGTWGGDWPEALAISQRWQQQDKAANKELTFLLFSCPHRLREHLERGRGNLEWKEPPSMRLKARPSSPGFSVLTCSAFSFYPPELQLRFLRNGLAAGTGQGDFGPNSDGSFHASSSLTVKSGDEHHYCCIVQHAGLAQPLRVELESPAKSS
FcRn of the FcRn column (Roche, Order No. 8128057001), sequence (P61769 21-119, chain 2 of 2, further chain): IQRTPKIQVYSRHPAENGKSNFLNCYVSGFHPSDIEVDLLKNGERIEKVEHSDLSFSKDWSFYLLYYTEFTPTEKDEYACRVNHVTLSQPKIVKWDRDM
human FcRn (human), sequence (P55899 24-297 limits assumed, form in doubt): as the sequence (P55899 24-297, chain 1 of 2) above
cynomolgus FcRn (cynomolgus), sequence (Q8SPV9 24-297 limits assumed, form in doubt): as the sequence (P55899 24-297, chain 1 of 2) above, with N39D, E44Q, G99S, S189G, S190N, L217M, S269T counted along it
murine CCR8 (mouse), sequence (P56484 whole entry): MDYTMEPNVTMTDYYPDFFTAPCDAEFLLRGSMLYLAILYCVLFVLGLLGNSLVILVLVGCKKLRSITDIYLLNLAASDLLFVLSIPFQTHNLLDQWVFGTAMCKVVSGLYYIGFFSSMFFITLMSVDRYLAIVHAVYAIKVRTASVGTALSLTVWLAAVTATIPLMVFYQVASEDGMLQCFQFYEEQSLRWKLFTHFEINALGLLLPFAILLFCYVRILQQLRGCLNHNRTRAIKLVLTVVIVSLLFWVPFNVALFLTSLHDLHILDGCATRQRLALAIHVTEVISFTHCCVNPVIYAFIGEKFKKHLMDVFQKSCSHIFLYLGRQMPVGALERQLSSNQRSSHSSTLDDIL

Row | Substance | pH at Elution [2] | Kd [3] | Kd [4] | Kd [5] | further results
1 | SA214G2 (antibody) | – | – | – | – | FACS mBW5147.3 [MFI] [1]: 48 MFI
2 | Ustekinumab (antibody) | 7.22 pH | 0.2 µM | 0.26 µM | 0.071 µM | –
3 | Briakinumab (antibody) | 7.85 pH | 0.23 µM | 0.16 µM | 0.56 µM | –
4 | CCL1 (human) (from UniProt P22362 24-96) (ligand) | – | – | – | – | EC80, β-arrestin signaling (DiscoverX assay) [6]: 0.02 mg/L
5 | L263G8 (antibody) | – | – | – | – | EC50 [7]: 0.132 µM; EC50 [8]: 0.00031 µM; FACS HuT78 [MFI] [9]: 40 MFI; IC50, Ca flux assay [6]: 0.00126 µM; IC50, inhibition of CCL1 induced β-arrestin signaling [6]: 0.0138 µM
